According to article PMC4131848:

Molecular target: putative N-acetyltransferase from S. aureus subsp. aureus Mu50 (SaGNAT) (Staphylococcus aureus subsp. aureus Mu50)
Test: SEC; Superdex 200, 50 mM Tris pH 8.0, 125 mM NaCl; elution compared with theoretical elution volumes for monomer, dimer and trimer

stoichiometry N: 2
Substance: putative N-acetyltransferase from S. aureus subsp. aureus Mu50 (SaGNAT) (enzyme)
